The series in a line: yeast display, Sf9 membrane polyspecificity reagent, FACS + sequencing; frameworks hold sequencing errors. In outline: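 In a synthetic yeast display library (Saccharomyces cerevisiae BJ5465), nanobody expression was induced with galactose for 36–48 hours. FACS gates were set low and high (top ~1%) using anti-HA fluorescence for expression and streptavidin fluorescence for binding of the Sf9 membrane reagent. Each polyreactivity label is drawn from the gate of origin.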
For the sequence “QVQLVETGGVLVQAGGSLRLSCAASGRTFRYNAMGWYRPAPGKEREFVAAITWGGGSTYYADSVKGRFTISRDNAKNTVYLQMNSLKPEDTAVYYCNADYIGNYQSIYQYDYWGQGTQVTVSS”, the “polyreactivity (PSR sort gate)” value is listed as “low polyreactivity”.
As for “QVQLVETGGVLVQAGGSLSLSCAASGSTFGWYVMGWYRQAPGKERELVAAITYSGDSTYYADSVKGRFTISRDNAKNTVYLQMNSLKPEDTAVYYCAADLSGYGKRYDYWGQGNQVTVSS”, the “polyreactivity (PSR sort gate)” value is reported as “low polyreactivity”.
The same measure for “QVQLVETGVGLVQAGGILRLSCAASGSTFTNNGIGWYRQAPGKEREVVATNSWDGDSTYYAYSVKGRFSISRDTAKNTVYLQMNSLKPEDTAVYYCAADEWGSDSALNFEYWGQGTQVTVSS”: “low polyreactivity”; for “QVQLVETRGGLVQAGGSLRLSCAASGSIFRTNVMGRYRQAPGKERELVAAISRRGGSTYYADSVKGRFTISRDNAKNTVYLQMITLKPEDTAVYYCAASSSAYRDDYWGQGTQVTVSS”: “high polyreactivity”; for “QVQLVETRGGLVQAGGSLRLTCAASGRTFEGYAMGWYRQAPGKEREFVAAITDGDSTYYADSVKGRFTISRDNAKNTVYLQMNSLKPEDTAVYYCAADRQTWYWYTAYLKYDYWGQGSQVTVSS”: “low polyreactivity”.
The value for “QVQLVETRGGLVQAGGTLRLSCAASGYTVYRYAKGWYRQAPGKERELVAGISRDGGSTYYADSVKGRFTISRDNAKNTVYLQMNSLNPEDTAVYYCAADKTRYRLGRDYWGQGTQVTVSS” was “low polyreactivity”; that for “QVQLVETRGGLVQAGGTLRLSFAASGSTFSYYTMGWYRHAPGTERELVGSIDSSGGSTYYADSVKGRFTISRDNAQNTVYLQMNSLKPEDTAVYYCATGDEWGYDYWGQGTQVTVSS” was “low polyreactivity”; that for “QVQLVETVGGLVQAGFSLRLSCAASGFTYGAYAMGLYRQPPGKERELVAAITLRTGGSTYYADSVKGRFTISRDNAKYTVYLQMNSLKPEDTAVYYCAARVGLSPGGYGYWGQGTQVTVSS” was “high polyreactivity”.
Consider “QVQLVEYGGGLDQAGGSLRLSCAAYGLTFSPYAMGWYRQAPGKEMELVATITIGGSTKYADSVKGRVTISRDNAKNTVYLQMNSLKPEDTAVYYCAVRSGYVTRRYDYWGQGTQVTVSS”, for which the “polyreactivity (PSR sort gate)” value is reported as “low polyreactivity”.
The same measure for “QVQLVGAGGGLVHAGGSLLLSCAASGFTLGSNAMGWYRQAPGKERALVAASSKSGGSTYYADSVKGRFTISRDNAKNTVYLQMTSLKPEDTAGYYCAARPIHYPPYYYWGQGTQVTVSS”: “high polyreactivity”; for “QVQLVKSGGGLVQAGGSLRLSCAASGRIIDRNAMGWYRQAPGKERELVAAISSSGSTNYADSVKGRFTISRDNAKNTVYLQMNSLKPQDTAVYYCAARWRSVLAAGTRPVSFDYWGQGTQVTVSS”: “low polyreactivity”; for “QVQLVKSGGGLVQAGGSLRLSCAASGRTFWGYAMGWYRQAPGKERELVAAISSGGDTTYADSVKGRCTISRDNAKNTVYLQMNSLKPEDTAVYYCAADRWIPVYILGADGYDYWGQGTHVTVSS”: “low polyreactivity”.
The value for “QVQLVKSGGGLVQAGGSLRLSCAASGSTFRYYVMGWYRQAPGKERELVATISRGGITKYADSVKGRFTSSRDNAKNTVYLQMHSLKPEDTAVYYCNTRGSRQGKFDYWGQGTQVTVSS” was “high polyreactivity”; that for “QVQLVQAGGGLVQAGGSLRLSSAPSGFTLYHYARGWYSQAPGKERQLVASITRSGASTYYPDSVKGRFTISRDNAKYTVYVQMNSLKPEDPAVYYCNKVRYTSSIWTYYDWGQGTQVTVSS” was “high polyreactivity”; that for “QVQLVQSGGCLVQAGGSLRLSCAASGSTFRYKAMGWYRQAPGKERELVATITGSGGSTYYADSVKGRFTISRDNAKNTVYLQMNSLKAEDTAVYYCNARYKRAAWRYDYWGQGTQVSVSS” was “high polyreactivity”.
For “QVQLVQSGGCLVQAGGSLRLSCAASGSTIGDNAMGWYRQAPGKERELDAAIDYSGGSTRYADSVKGRFTISRDNAKNTVYLQMNSLKPEDTAVYYCAADYASGSRLFPKTLDYWGQGTQVTVSS”, the “polyreactivity (PSR sort gate)” value is “low polyreactivity”.

The values are drawn from the nanobody polyreactivity screen of Harvey et al. (2022).
